# Target: triazole-linked ^triazole42Ub^me-ADPr (5), biotinylated (UniProt P0CG48)
# Assay: pull-down
substance,measurement,value
mCherry-DupA-WT (from UniProt Q5ZTK7 1-301) (enzyme),fold enrichment against biotinylated wild-type Ub or beads,> 10 fold

# Source: publication PMC7898697
